Measured values from the supplement of paper PMC7877785.
± gives the uncertainty stated by the source.

Test: self-splicing fitness, log relative to wild type (ln ratio); higher = more splicing; Tetrahymena group I intron in knt gene, E. coli kanamycin selection, DiMSum; sequences stand for … in CUCUCU…GGAGGGAAAAGUUAUCAGGCAUGCACCUGGUAGCUAGUCUUUAAACCAAUAGAUUGCAUCGGUUUAAAAGGCAAGACCGUCAAAUUGCGGGAAAGGGGUCAACAGCCGUUCAGUACCAAGUCUCAGGGGAAACUUUGAGAUGGCCUUGCAAAGGGUAUGGUAAUAAGCUGACGGACAUGGUCCUAACCACGCAGCCAAGUCCUAAGUCAACAGAUCUUCUGUUGAUAUGGAUGCAGUUCACAGACUAAAUGUCGGUCGGGGAAGAUGUAUUCUUCUCAUAAGAUAUAGUCGGACCUCUCCUUAAUGGGAGCUAGCGGAUGAAGUGAUGCAACACUGGAGCCGCUGGGAACUAAUUUGUAUGCGAAAGUAUAUUGAUUAGUUUUGGAGUACUCGUGGUCG
How it was run: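 DiMSum derived fitness as the error-weighted combination of fold changes across replicates, kanamycin versus no kanamycin, normalised to wild type. E. coli BL21(DE3) held the library, which randomised all eight P1ex-region intron nucleotides within the knt kanamycin-resistance gene on pET-22b(+). Six replicate transformations grew overnight at 37°C or 30°C on LB agar with or without 25 μg/mL kanamycin, also containing 100 μg/mL carbenicillin, 50 μM IPTG and 0.2% rhamnose, and pooled colonies were amplicon-sequenced on an Illumina HiSeq 2500.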

Sequence	self-splicing fitness (ln) (30 °C)	self-splicing fitness (ln) (37 °C)
AAAAAGCAAUAUUACGAAAC	-3.11 ± 0.22	-2.36 ± 0.16
AAAAAGCAAUAUUACGAAUG	-1.48 ± 0.091	-0.947 ± 0.12
AAAAAGCAAUAUUACGACGA	0.0233 ± 0.084	-0.502 ± 0.1
AAAAAGCAAUAUUACGAGCG	-0.337 ± 0.12	-0.566 ± 0.11
AAAAAGCAAUAUUACGAUCC	-0.549 ± 0.12	0.153 ± 0.18
AAAAAGCAAUAUUACGAUCG	-0.0337 ± 0.054	0.0375 ± 0.068
AAAAAGCAAUAUUACGAUGA	-0.913 ± 0.064	-0.139 ± 0.084
AAAAAGCAAUAUUACGAUGU	-0.893 ± 0.064	-0.0506 ± 0.079
AAAAAGCAAUAUUACGAUUC	-0.58 ± 0.091	-0.42 ± 0.12
AAAAAGCAAUAUUACGCCCU	0.324 ± 0.1	0.202 ± 0.12
AAAAAGCAAUAUUACGCCUA	-0.792 ± 0.12	-0.855 ± 0.094
AAAAAGCAAUAUUACGCUCA	-0.278 ± 0.058	0.0203 ± 0.082
AAAAAGCAAUAUUACGGACC	-0.351 ± 0.092	-0.225 ± 0.11
AAAAAGCAAUAUUACGGGCU	-1.55 ± 0.074	-1.24 ± 0.099
AAAAAGCAAUAUUACGGUAA	-1.31 ± 0.12	-0.53 ± 0.11
AAAAAGCAAUAUUACGGUGG	-2.28 ± 0.1	-1.77 ± 0.13
AAAAAGCAAUAUUACGUACA	-0.777 ± 0.069	-0.613 ± 0.071
AAAAAGCAAUAUUACGUAUG	-2.02 ± 0.11	-1.63 ± 0.13
AAAAAGCAAUAUUACGUGCU	-1.68 ± 0.076	-0.538 ± 0.079
AAAAAGCAAUAUUACGUGUC	-3.44 ± 0.17	-1.79 ± 0.17
AAAAAGCAAUAUUACGUUGG	-3.28 ± 0.14	-1.15 ± 0.11
AAACAGCAAUAUUACGAAAC	-2.4 ± 0.24	-1.51 ± 0.23
AAACAGCAAUAUUACGAAUU	-2.36 ± 0.11	-1.2 ± 0.13
AAACAGCAAUAUUACGACUC	-0.613 ± 0.077	-0.502 ± 0.098
AAACAGCAAUAUUACGACUU	0.0535 ± 0.066	0.468 ± 0.086

Sequence	self-splicing fitness (ln) (30 °C)	self-splicing fitness (ln) (37 °C)
AAACAGCAAUAUUACGAUAA	-1.6 ± 0.085	-0.365 ± 0.092
AAACAGCAAUAUUACGAUGC	-2.27 ± 0.058	-1.55 ± 0.074
AAACAGCAAUAUUACGAUUG	-3.35 ± 0.12	-1.76 ± 0.12
AAACAGCAAUAUUACGCACC	-0.45 ± 0.084	-0.254 ± 0.099
AAACAGCAAUAUUACGCACG	-1.45 ± 0.099	-0.888 ± 0.11
AAACAGCAAUAUUACGCCGA	-1.99 ± 0.087	-1.35 ± 0.09
AAACAGCAAUAUUACGCCGU	-2.54 ± 0.13	-1.96 ± 0.11
AAACAGCAAUAUUACGCUUA	-1.92 ± 0.087	-0.649 ± 0.094
AAACAGCAAUAUUACGCUUC	-3.6 ± 0.26	-2.35 ± 0.21
AAACAGCAAUAUUACGGCCU	-1.51 ± 0.064	-0.591 ± 0.071
AAACAGCAAUAUUACGGUCA	-0.86 ± 0.089	0.186 ± 0.097
AAACAGCAAUAUUACGGUUA	-0.306 ± 0.056	-0.167 ± 0.066
AAACAGCAAUAUUACGUGCG	-1.52 ± 0.053	-0.389 ± 0.065
AAACAGCAAUAUUACGUUCU	-0.831 ± 0.061	-0.0204 ± 0.077
AAAGAGCAAUAUUACGAAAC	-3.23 ± 0.44	-2.67 ± 0.48
AAAGAGCAAUAUUACGAACU	-1.41 ± 0.18	-1.14 ± 0.27
AAAGAGCAAUAUUACGACUU	-0.0829 ± 0.067	-0.0473 ± 0.079
AAAGAGCAAUAUUACGAGGU	-4.63 ± 0.26	-2.82 ± 0.19
AAAGAGCAAUAUUACGAUUA	-2.18 ± 0.22	-0.939 ± 0.17
AAAGAGCAAUAUUACGCCUC	-0.411 ± 0.27	
AAAGAGCAAUAUUACGCUGU	-3.2 ± 0.15	-1.88 ± 0.16
AAAGAGCAAUAUUACGCUUU	-3.18 ± 0.23	-3.68 ± 0.36
AAAGAGCAAUAUUACGGACC		-1.61 ± 0.3
AAAGAGCAAUAUUACGGGCC	-2.09 ± 0.3	-1.86 ± 0.41
AAAGAGCAAUAUUACGGGGG	-2.5 ± 0.34	-2.31 ± 0.39

Sequence	self-splicing fitness (ln) (30 °C)	self-splicing fitness (ln) (37 °C)
AAAGAGCAAUAUUACGGUCA	-1.91 ± 0.21	-1.3 ± 0.17
AAAGAGCAAUAUUACGGUCU	-2.5 ± 0.13	-1.76 ± 0.14
AAAGAGCAAUAUUACGUAGG	-3.36 ± 0.15	-2.76 ± 0.25
AAAGAGCAAUAUUACGUCAG	-4.01 ± 0.36	-2.29 ± 0.32
AAAGAGCAAUAUUACGUCUG	-3.55 ± 0.22	-2.36 ± 0.2
AAAGAGCAAUAUUACGUGAG	-2.95 ± 0.12	-1.02 ± 0.12
AAAGAGCAAUAUUACGUUAA	-3.16 ± 0.25	-2.28 ± 0.28
AAAGAGCAAUAUUACGUUGU	-3.11 ± 0.13	-2.51 ± 0.2
AAAUAGCAAUAUUACGACCG	-0.956 ± 0.15	-0.441 ± 0.19
AAAUAGCAAUAUUACGACGC	-0.825 ± 0.062	0.13 ± 0.085
AAAUAGCAAUAUUACGACGU	0.194 ± 0.083	-0.646 ± 0.074
AAAUAGCAAUAUUACGAGGA	-2.72 ± 0.19	-1.88 ± 0.18
AAAUAGCAAUAUUACGAGUA	-2.58 ± 0.19	-1.09 ± 0.12
AAAUAGCAAUAUUACGCAAG	-2.14 ± 0.094	-1.13 ± 0.11
AAAUAGCAAUAUUACGCAAU	-2.44 ± 0.13	-0.689 ± 0.12
AAAUAGCAAUAUUACGCAGA	-2.07 ± 0.26	
AAAUAGCAAUAUUACGCGAA	-1.42 ± 0.14	-1.59 ± 0.16
AAAUAGCAAUAUUACGCGAC	-2.2 ± 0.17	-1.03 ± 0.2
AAAUAGCAAUAUUACGCGCA	-0.264 ± 0.092	-0.103 ± 0.11
AAAUAGCAAUAUUACGCGCG	-0.988 ± 0.1	-0.952 ± 0.11
AAAUAGCAAUAUUACGCGUA	-2.41 ± 0.21	-1.04 ± 0.13
AAAUAGCAAUAUUACGCUCA	-0.111 ± 0.13	0.39 ± 0.16
AAAUAGCAAUAUUACGUAGG	-2.59 ± 0.1	-1.96 ± 0.1
AAAUAGCAAUAUUACGUAUU	-2.56 ± 0.11	-0.844 ± 0.094
AAAUAGCAAUAUUACGUCCU	-0.0903 ± 0.081	0.319 ± 0.1
